The results in this text go back to US20190153111A1 (Novartis, published 2019).

Holding throughout (test): cell-based or functional assay
In assay [1] the target is T1, human CD40 on cells (human, UniProt P25942 21-277).
Assay [2] deals with T1, human CD40 on cells. The source holds these as a separate data set.
The target of assay [3] is cynomolgus monkey CD40 on cells (cynomolgus, UniProt G7PG38 21-278).
For assay [4], the target named is rhesus monkey CD40 on cells (rhesus, UniProt F6SNI1 21-278).
In assay [5] the target is T1, human CD40 on cells. This is another data set of the same source.

Where “and” joins values, the source holds several entries; their conditions need not be identical. Equal values may be shown once.

T1 sequence (P25942 21-277 limits assumed): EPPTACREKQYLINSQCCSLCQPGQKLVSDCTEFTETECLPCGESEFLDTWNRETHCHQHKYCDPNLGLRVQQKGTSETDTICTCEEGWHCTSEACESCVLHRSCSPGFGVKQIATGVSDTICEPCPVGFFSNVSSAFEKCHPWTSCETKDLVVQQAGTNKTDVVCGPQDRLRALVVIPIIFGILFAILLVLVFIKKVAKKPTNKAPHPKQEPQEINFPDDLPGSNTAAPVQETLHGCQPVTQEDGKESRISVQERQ

B1: CFZ533 (antibody, human IgG1, kappa, N297A)
heavy: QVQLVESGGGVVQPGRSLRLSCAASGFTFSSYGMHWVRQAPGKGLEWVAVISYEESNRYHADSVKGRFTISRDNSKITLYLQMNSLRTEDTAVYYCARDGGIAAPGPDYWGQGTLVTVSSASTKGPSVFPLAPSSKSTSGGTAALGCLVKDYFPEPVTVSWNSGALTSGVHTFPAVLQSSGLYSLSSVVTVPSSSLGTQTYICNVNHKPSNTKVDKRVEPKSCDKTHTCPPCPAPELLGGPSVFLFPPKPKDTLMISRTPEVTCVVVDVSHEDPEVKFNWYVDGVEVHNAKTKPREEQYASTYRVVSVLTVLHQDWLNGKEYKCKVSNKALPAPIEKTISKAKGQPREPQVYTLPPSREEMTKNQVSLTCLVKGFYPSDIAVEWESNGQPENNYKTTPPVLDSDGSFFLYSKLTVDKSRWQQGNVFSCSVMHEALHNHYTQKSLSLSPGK
light: DIVMTQSPLSLTVTPGEPASISCRSSQSLLYSNGYNYLDWYLQKPGQSPQVLISLGSNRASGVPDRFSGSGSGTDFTLKISRVEAEDVGVYYCMQARQTPFTFGPGTKVDIRRTVAAPSVFIFPPSDEQLKSGTASVVCLLNNFYPREAKVQWKVDNALQSGNSQESVTEQDSKDSTYSLSSTLTLSKADYEKHKVYACEVTHQGLSSPVTKSFNRGEC
Take B1: in assay [1], the “IC50, inhibition of rCD154-induced TNF production by primary monocyte-derived dendritic cells” value is 0.04 µg/ml and 0.27 nM; the “IC50, inhibition of rCD154-induced proliferation of human PBMCs” value is 0.12 nM; the “IC50, inhibition of rCD154-induced proliferation of human whole blood cultures” value is 0.024 µg/ml and 0.16 nM; the “IC50, inhibition of rCD154-induced proliferation of purified human tonsillar B cells” value is 0.071 µg/ml and 0.47 nM. The “IC50 (read off the curve): inhibition of rCD154-induced CD69 expression on CD20pos B cells, human whole blood” value in assay [2] is around 0.1 µg/mL. Moreover, the “Inhibition of rCD154-induced proliferation (IC50 PBMCs), cynomolgus” value in assay [3] is 0.01 µg/ml and 0.07 µM. Moreover, the “Inhibition of rCD154-induced proliferation (IC50 PBMCs), rhesus” value in assay [4] was 0.026 µg/ml and 0.18 µM. For the same molecule, in assay [5], the “Inhibition of rCD154-induced proliferation (IC50 PBMCs), human” value was 0.017 µg/ml and 0.12 µM.
